Data taken from the supplement of paper PMC10598134.
± gives the standard deviation.

Experiment: collision cross section of modified peptide (TIMS, N2, iRT-aligned); higher = larger / more extended gas-phase ion
Summary of the method: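 Values are averages of 1–3 technical replicates of the most abundant feature for each charge state. Collision cross section was obtained from the Mason-Schamp equation after 1/K0 calibration with three reference ions and run-wise alignment to the median iRT peptide deviation. Synthetic peptide pools (iRT standard spiked 1:40) were separated on a 120-min nanoflow C18 gradient at 60 °C, analysed on a timsTOF Pro/HT (dda-PASEF, nitrogen, ~2.4 mbar) and identified with MaxQuant.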

[1] = charge state: 2, modification: GlyGly (K)
[2] = charge state: 3, modification: GlyGly (K)
[3] = charge state: 2, modification: Acetyl (K)
[4] = charge state: 2, modification: Nitro (Y)
[5] = charge state: 2, modification: Malonyl
[6] = charge state: 2, modification: HexNAc (ST)
[7] = charge state: 2, modification: Formyl
[8] = charge state: 3, modification: Formyl
[9] = charge state: 2, modification: Methyl (K)
[10] = charge state: 2, modification: Crotonyl
[11] = charge state: 2, modification: Succinyl
[12] = charge state: 3, modification: Succinyl
[13] = charge state: 3, modification: Methyl (K)
[14] = charge state: 3, modification: Acetyl (K)
[15] = charge state: 2, modification: Trimethyl (K)
[16] = charge state: 3, modification: Trimethyl (K)
[17] = charge state: 3, modification: HexNAc (ST)
[18] = charge state: 2, modification: Butyryl
[19] = charge state: 3, modification: Butyryl
[20] = charge state: 2, modification: hydroxyisobutyryl
[21] = charge state: 2, modification: Citrullination (R)
[22] = charge state: 3, modification: Citrullination (R)
[23] = charge state: 3, modification: Methyl (R)
[24] = charge state: 3, modification: Crotonyl
[25] = charge state: 3, modification: Dimethyl (K)
[26] = charge state: 2, modification: Dimethyl (K)
[27] = charge state: 2, modification: Hydroxyproline
[28] = charge state: 3, modification: Hydroxyproline
[29] = charge state: 2, modification: Biotin
[30] = charge state: 3, modification: Biotin
[31] = charge state: 3, modification: Malonyl

VNALKNLQVK [_VNALK(GlyGly (K))NLQVK_]
collision cross section [1]: 383.13 ± 0.38 Å² | collision cross section [2]: 444.03 ± 1.9 Å²

IVSGKDYNVTANSK [_IVSGK(Acetyl (K))DYNVTANSK_]
collision cross section [3]: 408.96 ± 0.54 Å²

FYTEDSPGLK [_FY(Nitro (Y))TEDSPGLK_]
collision cross section [4]: 356.24 ± 0.17 Å²

STGLELETPSLVPVKK [_STGLELETPSLVPVK(Malonyl)K_]
collision cross section [5]: 445.74 ± 0.66 Å²

SGYSSPGSPGTPGSR [_SGYSSPGSPGTPGS(HexNAc (ST))R_]
collision cross section [6]: 394.87 ± 0.13 Å²

ITLSKHQNVQLPR [_ITLSK(Formyl)HQNVQLPR_]
collision cross section [7]: 435.58 ± 0.72 Å² | collision cross section [8]: 504.15 ± 24 Å²

FVDSKVGEFSGANK [_FVDSK(Methyl (K))VGEFSGANK_]
collision cross section [9]: 434.66 Å²

STLEEPNLQPLQR [_S(HexNAc (ST))TLEEPNLQPLQR_]
collision cross section [6]: 436.25 ± 0.56 Å²

VETTVTSLKTK [_VETTVTSLK(Crotonyl)TK_]
collision cross section [10]: 389.71 ± 0.89 Å²

DAEAAEATAEGALKAEK [_DAEAAEATAEGALK(Succinyl)AEK_]
collision cross section [11]: 437.62 ± 0.51 Å² | collision cross section [12]: 541.32 ± 2 Å²

AAQASDLEKIHLDEK [_AAQASDLEK(Propionyl)IHLDEK_]
collision cross section (charge state: 3, modification: Propionyl): 496.94 Å²

DAEAAEATAEGALKAEK [_DAEAAEATAEGALK(Methyl (K))AEK_]
collision cross section [9]: 456.59 ± 2.6 Å² | collision cross section [13]: 536.13 ± 1.5 Å²

ITLSKHQNVQLPR [_ITLSK(Succinyl)HQNVQLPR_]
collision cross section [11]: 418.56 ± 0.53 Å² | collision cross section [12]: 485.89 ± 2 Å²

TLDEILQEKK [_TLDEILQEK(Acetyl (K))K_]
collision cross section [3]: 377 ± 0.3 Å² | collision cross section [14]: 448.44 Å²

ITESVAETAQTIKK [_ITESVAETAQTIK(Trimethyl (K))K_]
collision cross section [15]: 451.09 ± 1 Å² | collision cross section [16]: 496.11 ± 2.8 Å²

SAGSVESPSVSSTHR [_SAGSVESPSVSST(HexNAc (ST))HR_]
collision cross section [17]: 473.17 ± 1.2 Å²

SKLLFSNTAAQK [_SK(Succinyl)LLFSNTAAQK_]
collision cross section [11]: 398.22 ± 0.77 Å²

IINEPTAAAIAYGLDKK [_IINEPTAAAIAYGLDK(Acetyl (K))K_]
collision cross section [3]: 458.66 ± 2.6 Å² | collision cross section [14]: 554.46 ± 1.6 Å²

GETASKLQSEISR [_GETASK(Butyryl)LQSEISR_]
collision cross section [18]: 390.84 ± 0.85 Å² | collision cross section [19]: 467.14 ± 2.9 Å²

IISSIEQKEENK [_IISSIEQK(Trimethyl (K))EENK_]
collision cross section [15]: 411.54 ± 1.1 Å² | collision cross section [16]: 448.49 ± 1.5 Å²

LEEVTGKLQVAR [_LEEVTGK(hydroxyisobutyryl)LQVAR_]
collision cross section [20]: 399.92 ± 0.3 Å²

ASDTSSETVFGKR [_ASDTSSETVFGK(Acetyl (K))R_]
collision cross section [3]: 397.17 ± 0.32 Å² | collision cross section [14]: 476.65 ± 0.87 Å²

SPSDSGYSYETIGKTTK [_SPSDSGYSYETIGK(Formyl)TTK_]
collision cross section [7]: 446.06 ± 0.77 Å² | collision cross section [8]: 518.69 ± 1.8 Å²

ITLSKHQNVQLPR [_ITLSK(Acetyl (K))HQNVQLPR_]
collision cross section [3]: 436.23 ± 3.2 Å² | collision cross section [14]: 526.67 ± 2.1 Å²

GRGTSQLAEGATAK [_GR(Citrullination (R))GTSQLAEGATAK_]
collision cross section [21]: 396.62 ± 1 Å²

LLIVSTTPYSEKDTK [_LLIVSTTPYSEK(Trimethyl (K))DTK_]
collision cross section [15]: 468.15 ± 1.2 Å² | collision cross section [16]: 501.69 ± 1.8 Å²

TQAEGQGQGRGLGLVSAVR [_TQAEGQGQGR(Citrullination (R))GLGLVSAVR_]
collision cross section [22]: 549.33 ± 0.79 Å²

VTGGIFSVTK [_VTGGIFS(HexNAc (ST))VTK_]
collision cross section [6]: 361.54 ± 1.2 Å²

LGVATVAKGVCGACK [_LGVATVAK(Acetyl (K))GVCGACK_]
collision cross section [3]: 413.53 ± 0.49 Å²

DNNNSNNRGSYNR [_DNNNSNNR(Methyl (R))GSYNR_]
collision cross section [23]: 460.8 ± 2.4 Å²

TVSKVDDFLANEAK [_TVSK(Crotonyl)VDDFLANEAK_]
collision cross section [10]: 421.27 ± 0.55 Å²

GRGVGSPEPGPTAPYLGRR [_GR(Citrullination (R))GVGSPEPGPTAPYLGRR_]
collision cross section [22]: 497.66 ± 1.9 Å²

VGLQVVAVKAPGFGDNR [_VGLQVVAVK(Crotonyl)APGFGDNR_]
collision cross section [10]: 449.86 ± 0.94 Å² | collision cross section [24]: 499.08 ± 1.6 Å²

SITHSTVGSKGEK [_SITHSTVGSK(Trimethyl (K))GEK_]
collision cross section [15]: 408.54 ± 2.1 Å² | collision cross section [16]: 473.59 ± 1.5 Å²

FSAYIKNSNPALNDNLEK [_FSAYIK(Dimethyl (K))NSNPALNDNLEK_]
collision cross section [25]: 510.58 ± 2.9 Å²

INNFSADIKDSK [_INNFSADIK(Dimethyl (K))DSK_]
collision cross section [26]: 406.51 ± 0.23 Å² | collision cross section [25]: 455.06 ± 5.9 Å²

ATVASSTQKFQDLGVK [_ATVASSTQK(Butyryl)FQDLGVK_]
collision cross section [18]: 453.04 ± 1.1 Å² | collision cross section [19]: 495.56 ± 1.9 Å²

FDDTNPEKEEAK [_FDDTNPEK(Dimethyl (K))EEAK_]
collision cross section [26]: 399.09 ± 0.55 Å² | collision cross section [25]: 487.33 ± 2.2 Å²

ASEALLKQLK [_ASEALLK(Butyryl)QLK_]
collision cross section [18]: 379.45 ± 0.72 Å²

LGVPGLPGYPGRQGPK [_LGVPGLP(Hydroxyproline)GYPGRQGPK_]
collision cross section [27]: 416.79 ± 1.1 Å² | collision cross section [28]: 499.55 ± 1.2 Å²

IHNAENIQPGEQKYEYK [_IHNAENIQPGEQK(Formyl)YEYK_]
collision cross section [8]: 518.35 ± 1.3 Å²

SDSGKPYYYNSQTK [_SDSGK(Malonyl)PYYYNSQTK_]
collision cross section [5]: 422.4 ± 0.57 Å²

PANEKATDDYHYEK [_PANEK(Trimethyl (K))ATDDYHYEK_]
collision cross section [16]: 499.05 Å²

SPSDSGYSYETIGKTTK [_SPSDSGYSYETIGK(Succinyl)TTK_]
collision cross section [11]: 453.06 ± 1.1 Å² | collision cross section [12]: 530.11 ± 3 Å²

TEVLSPNSKVESK [_TEVLSPNSK(Biotin)VESK_]
collision cross section [29]: 425.18 ± 3.5 Å² | collision cross section [30]: 487.32 ± 1.7 Å²

STNVTVAAARGIK [_STNVTVAAAR(Citrullination (R))GIK_]
collision cross section [21]: 395.23 ± 1.3 Å² | collision cross section [22]: 471.03 Å²

VTLEVGKVIQQGR [_VTLEVGK(GlyGly (K))VIQQGR_]
collision cross section [1]: 431.32 ± 0.96 Å² | collision cross section [2]: 486.06 ± 1.6 Å²

LTEKELAEAASK [_LTEK(Biotin)ELAEAASK_]
collision cross section [29]: 418.47 ± 3 Å²

LLALSGPGGGRGR [_LLALSGPGGGR(Methyl (R))GR_]
collision cross section (charge state: 2, modification: Methyl (R)): 387.94 ± 0.53 Å² | collision cross section [23]: 446.53 ± 3.2 Å²

GNDISSGTVLSDYVGSGPPKK [_GNDISSGTVLSDY(Nitro (Y))VGSGPPKK_]
collision cross section (charge state: 3, modification: Nitro (Y)): 549.52 Å²

YEITEQR [_Y(Nitro (Y))EITEQR_]
collision cross section [4]: 327.03 ± 0.71 Å²

TPNLYIYSKK [_TPNLYIYSK(Formyl)K_]
collision cross section [7]: 377.67 ± 0.9 Å²

GFALVGVGSEASSKK [_GFALVGVGSEASSK(GlyGly (K))K_]
collision cross section [1]: 452.76 ± 1.4 Å² | collision cross section [2]: 507.31 ± 14 Å²

YIEIYVQKVNPSR [_YIEIYVQK(Succinyl)VNPSR_]
collision cross section [11]: 436.15 Å²

TPNLYIYSKK [_TPNLYIYSK(Butyryl)K_]
collision cross section [18]: 388.09 ± 0.85 Å² | collision cross section [19]: 439.93 Å²

VFIGNLNTLVVKKK [_VFIGNLNTLVVK(Malonyl)KK_]
collision cross section [31]: 517.22 Å²

VGVEAKQPNSAIR [_VGVEAKQP(Hydroxyproline)NSAIR_]
collision cross section [27]: 405.11 ± 0.27 Å² | collision cross section [28]: 482.65 ± 0.83 Å²

ITGKNQVTATK [_ITGK(Propionyl)NQVTATK_]
collision cross section (charge state: 2, modification: Propionyl): 368.3 ± 0.65 Å²

LQEKVESAQSEQK [_LQEK(Crotonyl)VESAQSEQK_]
collision cross section [10]: 419.55 ± 0.85 Å² | collision cross section [24]: 502.91 ± 1.6 Å²

IHNAENIQPGEQKYEYK [_IHNAENIQPGEQK(Malonyl)YEYK_]
collision cross section [31]: 527.67 ± 2.8 Å²

FSAYIKNSNPALNDNLEK [_FSAYIK(Methyl (K))NSNPALNDNLEK_]
collision cross section [9]: 493.27 Å² | collision cross section [13]: 508.45 ± 2.8 Å²

AYDATHLVK [_AY(Phospho (Y))DATHLVK_]
collision cross section (charge state: 2, modification: Phospho (Y)): 354.67 ± 0.75 Å² | collision cross section (charge state: 3, modification: Phospho (Y)): 427.71 Å²

SLEEEGAAHSGKR [_SLEEEGAAHSGK(hydroxyisobutyryl)R_]
collision cross section [20]: 421.1 ± 1.9 Å² | collision cross section (charge state: 3, modification: hydroxyisobutyryl): 479.68 ± 2.1 Å²

RFSPPSSSLQPGK [_RFS(HexNAc (ST))PPSSSLQPGK_]
collision cross section [6]: 414.91 ± 1 Å² | collision cross section [17]: 448.47 ± 9.4 Å²

IQQELQTAKK [_IQQELQTAK(Butyryl)K_]
collision cross section [18]: 385.32 ± 2.2 Å² | collision cross section [19]: 441.3 Å²

GTISAPGKVVTAAAQAK [_GTISAPGK(Biotin)VVTAAAQAK_]
collision cross section [29]: 458.66 ± 0.47 Å² | collision cross section [30]: 550.8 ± 0.34 Å²
